Literature values in PMC5035964.

How the values were obtained:
[1] = biological target: CD46 (Homo sapiens) (UniProt P15529)
[2] = biological target: SLAMF1 (Homo sapiens) (UniProt Q13291)
[3] = biological target: Nectin-4 (Homo sapiens) (UniProt Q96NY8)
Sequence of UniProt Q96NY8 (Q96NY8 32-510): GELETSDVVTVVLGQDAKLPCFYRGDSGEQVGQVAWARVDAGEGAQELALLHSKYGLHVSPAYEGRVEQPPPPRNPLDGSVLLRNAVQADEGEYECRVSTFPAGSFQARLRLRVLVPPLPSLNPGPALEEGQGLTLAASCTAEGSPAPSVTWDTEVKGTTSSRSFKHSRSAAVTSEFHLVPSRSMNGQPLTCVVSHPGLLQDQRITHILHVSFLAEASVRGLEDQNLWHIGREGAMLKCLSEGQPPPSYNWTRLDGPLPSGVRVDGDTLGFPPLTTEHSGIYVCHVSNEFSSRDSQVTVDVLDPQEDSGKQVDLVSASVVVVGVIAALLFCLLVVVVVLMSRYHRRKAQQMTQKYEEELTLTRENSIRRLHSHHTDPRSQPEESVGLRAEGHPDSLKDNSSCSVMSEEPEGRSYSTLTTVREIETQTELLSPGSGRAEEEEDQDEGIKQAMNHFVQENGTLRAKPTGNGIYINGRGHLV

Sequence of UniProt Q13291 (Q13291 21-335): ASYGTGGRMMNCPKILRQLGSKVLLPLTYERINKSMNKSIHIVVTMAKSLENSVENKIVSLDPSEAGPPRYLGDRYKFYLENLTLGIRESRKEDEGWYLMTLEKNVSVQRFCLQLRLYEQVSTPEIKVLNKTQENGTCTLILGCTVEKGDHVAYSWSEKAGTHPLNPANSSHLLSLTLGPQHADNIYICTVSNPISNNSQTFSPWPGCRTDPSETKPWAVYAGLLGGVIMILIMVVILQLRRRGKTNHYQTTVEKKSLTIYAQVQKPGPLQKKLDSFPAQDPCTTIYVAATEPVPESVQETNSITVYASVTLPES
Sequence of UniProt P15529 (P15529 35-392): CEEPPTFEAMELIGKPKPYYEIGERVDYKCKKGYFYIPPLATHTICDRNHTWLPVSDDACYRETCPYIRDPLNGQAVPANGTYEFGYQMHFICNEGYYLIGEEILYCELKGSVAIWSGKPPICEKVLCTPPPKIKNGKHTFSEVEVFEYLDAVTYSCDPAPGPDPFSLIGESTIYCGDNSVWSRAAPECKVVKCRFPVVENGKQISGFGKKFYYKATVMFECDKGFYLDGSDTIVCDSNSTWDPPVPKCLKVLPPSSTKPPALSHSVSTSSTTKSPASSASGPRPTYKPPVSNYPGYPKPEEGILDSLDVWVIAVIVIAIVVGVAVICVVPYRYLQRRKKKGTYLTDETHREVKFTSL

Substance | Kd [1] | Kd [2] | Kd [3]
Measles virus hemagglutinin (H), Edmonston (from UniProt P08362) | 79 nM | – | –
Measles virus hemagglutinin (H) (from UniProt P08362) | – | 80 nM | 20 nM
